Tested on: K4 kissing-loop RNA reporter
Test: apparent KD of K4 kissing-loop reporter; higher = weaker reporter binding
Conditions: Eterna round: R107
Experimental: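 RNA-MaP round R107: designed RNA switches with theophylline, tryptophan, arginine or FMN aptamers are transcribed on-chip within common flanks. They are titrated with a labelled K4 kissing-loop RNA reporter in RNA-MaP buffer (100 mM Tris pH 7.5, 80 mM KCl, 4 mM MgCl2), without ligand or with the indicated ligand. Median apparent KD per design.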

[1] = input ligand: theophylline 20 uM
[2] = input ligand: tryptophan 2.4 mM
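Further: bound reporter read as fluorescence of individual clusters on recovered sequencing chips by microscopy, with normalized cluster intensities fitted with a binding model.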

Sequence	apparent KD of K4 kissing-loop reporter (input ligand: FMN 200 uM)	apparent KD of K4 kissing-loop reporter (input ligand: arginine 13.2 mM)	apparent KD of K4 kissing-loop reporter (input ligand: none)	apparent KD of K4 kissing-loop reporter [1]	apparent KD of K4 kissing-loop reporter [2]
UAUUUAAAUAAAAUAAAAUAAAUUGCUGAUACCAGAGCCAAUUGGCUCCCUUGGCAGCGGAUCGAGUGAUGUUCGUAAAAUUUAU [AK2 SS Theophylline A]	28.5 nM	65.4 nM	29.6 nM	61.5 nM	30.3 nM
AAAGCAUUGAGAAGGAGCGUGUCGUGGAGUGAUGUUCCAUUGUAGACCUAAGGUCUACAAGCACAGGUAGGUCGCUCAUUGCUAA [JR_Nu_SSArginiB_Sub023]	169 nM	148 nM	173 nM	138 nM	156 nM
GGAUGGUAGGCGGCCGCCACUAAAACUGAACAAAUAUAAACCAGUGAUGUUGGUAUGAUGAAGUAUAGGACCGGGCCUAGAUAGA [Exclusion - Tryptophan B (Freestyle 1)]	124 nM	134 nM	143 nM	160 nM	122 nM
ACGAUCAUGUCGGCCGCCACUGAGAGUAGUGAUGUUACUCUUUUCCUUUAGUUAUUAUAUUUUAUCAGGACCGGGACAUGUUCGU [JR_ExcTryptoB_Sub022]	88.3 nM	66.7 nM	72.3 nM	69.6 nM	77.9 nM
AAGAAUGCAGGAAGGAGCGGCGGACGGAGUGAUGUUCCGGCUAGUGAUGUUAGCAAACACCGCCAGGUAGGUCGCCUGCUGCCCU [Same State Arginine B GF 6]	207 nM	127 nM	171 nM	153 nM	151 nM
CGUUCCUCUGUCGAUACCAGCUUCAGUUGGCGGCCAGUGAUGUUGGUAUUGCCGAUGCCAAGCCCUUGGCAGCGAUAUGAGACCC [Aredi]	572 nM	403 nM	597 nM	265 nM	439 nM
UUGCUUCUACUAGGAUAUCAUCAGUCAUGUUCAAUGACACUCGAGUGAUGUUCGAUAGAAGCGAGAUGAGAAGGAGUACAAGCAG [FMB B SS t3]	374 nM	48.8 nM	159 nM	118 nM	70.7 nM
CGUUUAUAGGAGGAUACCAGUACGGAUAAAGUACGUUAAUAGUAGAGUGAUGUUCUAAAGUACCCUUGGCAGCUUAGAGUGAGUG [ExTheophylB.N]	100 nM	104 nM	106 nM	121 nM	73.6 nM
AGUGUACAGUCGGCCGCCACUCACUCCUCCUGCGUUAACGAGUGAUGUUUGUUUUUUAGUGGUACGAGGACCGGGACUUCUCUGA [theeternabot_sameState_KL_Trp_B_35]	237 nM	118 nM	275 nM	245 nM	260 nM
UUUUAAUGCAGUGAUGUUGCUAAUAAAACAGAGGAUAUGCAUGGAAGCAGAAGGCUGAUAUAUUAUACUUUAAUAUAUUAUAUUU [JR_SSFMNA_Sub011]	77.8 nM	147 nM	121 nM	188 nM	86.6 nM
UGUCAUGGAAACAUGAACGUUAAAAUAAAUCGAGGACCGGUACGGCCGCCACUCGUAUAGCGGUCAGUGAUGUUGACUGUAGUAC [KL-SSTryp-A form2 sub11 #dotplot2>1]	107 nM	110 nM	109 nM	109 nM	101 nM
CGGAGUGAUGUUCCUUUUAUUAAUUAUUUACGAGGACCGGUACGGCCGCCACUCGAUUUAGCUUUUAUUUAAUGCUUGGAUGUUU [JR_SSTryptoA_Sub004]	130 nM	212 nM	140 nM	208 nM	66.3 nM
UAAUGUGGCACAGGAUAUACUGAUUGGAGUGAUGUUCCAAACAUGGACGUGAGACUUUUACAAGAAGUAGAAGGGUGUUAGAUAU [Exclusion FMN B GF 20]	241 nM	298 nM	304 nM	448 nM	306 nM
CAUACCCAGUGAUGUUGGGUCGGUACCGAUACCAGUCGUACAGCCGACCCUUGGCAGCGGUAGCAUUGCCCGGCGUCGGCUUGUG [theeternabot_exclusion_KL_Theo_A_17]	767 nM	581 nM	625 nM	445 nM	381 nM
CGAUAUAAGAAUAUAUAUCUCUAUUCAGAAGGAGCGUGUUUGUACACAGGUAGGUCGCUGAAAUUUAAACUAGUGAUGUUAGACU [JR_SSArginiA_Sub002]	1170 nM	878 nM	1210 nM	1000 nM	890 nM
UUGUUUUACUGAAGGAGCGGCAAUUGAUACGUAGAUAUAGUGAUGUUAUAUAAGAUAGAGAGCCAGGUAGGUCGCAGAUGUGUUU [ExArgB.T]	196 nM	205 nM	180 nM	204 nM	149 nM
GGAUCCACCAGUGAUGUUGGAGAAAACUCUAAGGAUAUGACGAAAGUCAGAAGGUGGUAGACUGGUCAAAGUCCGGUCGGAUCCA [FmnA10 U30+U66]	237 nM	191 nM	577 nM	756 nM	249 nM
GAUGUUUGCCGAAGGAGCGAGUAUUCGCCAGUGAUGUUGGUGAGAUAUACACGUAUCAGUGCUCAGGUAGGUCGCGGCGCUUGUU [Same State Arginine B GF 27]	123 nM	107 nM	129 nM	135 nM	117 nM
ACACUUUACGUAGGAUAUGCGACGAGUGAUGUUCGUCAGGCGGCUUUAGAUUAUACAAGCCGCCUAGCAGAAGGACGGGCAGUGU [Araar]	127 nM	157 nM	172 nM	158 nM	170 nM
AUAAUAAAGACGGCCGCCACUGAGAGUAGUGAUGUUACUCUUUUCCUUUAGAAAUAAUAUUUUAUCAGGACCGGGUUUUUUGAAU [JR_Nu_ExcTryptoB_Sub026]	95.3 nM	81.1 nM	84.8 nM	79.6 nM	92 nM
AGUGAUGUUGUGUUAUCUUAGUGAAGUGAUCGAGGACCGGUACGGCCGCCACUCGAGUGAUGAGUGAGUGAUGUUUGUUUAGGGA [vvbmullin]	818 nM	673 nM	1080 nM	931 nM	561 nM

Reference: the supplement of paper PMC9170038
